From US20240124597A1 (Bristol-Myers Squibb, published 2024)

Assays:
[1] = target: T1, human-CD40-monomer protein (human, UniProt P25942 21-193, limits assumed); experiment: SPR, Ab captured on protein A, hCD40 monomer 500 and 50 nM, 1:1 fit; supernatant
T1 construct: Soluble monomer generated in house, used as SPR analyte; also called hCD40; hCD40-monomer
Protocol: (§1) Titer analysis was performed using Biolayer Interferometry (BLI) on an Octet RED instrument (Fortebio) by capturing antibodies from supernatant using protein A sensor tips and measuring capture response with respect to a standard curve obtained using a control antibody sample. SPR data were obtained by capturing antibodies on a protein A surface and testing the binding of 500 nM and 50 nM injections of human-CD40 analyte, using a BIAcore™ T200 instrument (GE Healthcare). The kinetic data for the two concentrations of hCD40-monomer were fit to a 1:1 Langmuir model, to yield estimates of the kinetic and affinity values for these interactions, and for comparison of the different molecules.

[2] = target: T1, human-CD40-monomer protein; experiment: SPR, Ab captured on protein A, hCD40 monomer 500 and 50 nM, 1:1 fit; supernatant; sup (supernatant); Vh-hz2 / Vk-hz2
Protocol: as §1

[3] = target: T1, human-CD40-monomer protein; experiment: SPR, purified Ab captured on protein A, hCD40 monomer 500-3.9 nM, 25 C, 1:1 Langmuir fit
Protocol: (§2) Based on the sequences, titer, and SPR binding data, antibodies were selected for larger scale expression, purification, and further characterization. SPR analysis using purified antibodies was performed by capturing antibodies on a protein A surface, with binding of a 500-3.9 nM (2:1) dilution series of human-CD40 monomer, at either 25° C. or 37° C. in PBS-T pH 7.1 buffer; the titration data was fit to a 1:1 Langmuir model.
(§3) SPR data are fit to a 1:1 Langmuir model using BIAcore™ T200 evaluation software to obtain values for the association rate constant (ka), dissociation rate constant (kd) and dissociation constant (KD).

[4] = target: T1, human-CD40-monomer protein; experiment: SPR, purified Ab captured on protein A, hCD40 monomer 500-3.9 nM, 37 C, 1:1 Langmuir fit
Protocol: as §2, §3

[5] = target: T2, human CD40 on cells (tonsillar B cells, immature dendritic cells, Ramos-Blue cells) (human, UniProt P25942 21-277); experiment: cell-based or functional assay
[6] = target: T3, hCD64 (human, UniProt P12314 16-288, limits assumed); experiment: SPR, antibody captured on protein A, His-tagged FcγR as analyte; 1:1 Langmuir fit
T3 construct: His-tagged; also called hFcγRI
Protocol: (§4) FcγR binding SPR: FcγR binding can be measured in vitro using purified FcγRs using methods, such as BIAcore™ surface plasmon resonance (SPR). One method tests the binding of purified His-tagged FcγR proteins (FcγR-his) to antibodies that are captured on a sensor surface containing protein A which has been immobilized using standard ethyl(dimethylaminopropyl) carbodiimide (EDC)/N-hydroxysuccinimide (NHS) chemistry with ethanolamine blocking. These experiments are performed on a BIAcore™ T200 instrument (GE Healthcare, Marlborough, MA) at 25° C. For example, samples of purified antibody at 3 μg/ml concentration are first captured on the immobilized protein A surface using a 15 second (s) contact time at 10 μl/min flow rate. This is followed by the binding of purified FcγR-His proteins at various concentrations, such as 10 μM-1.5 nM (2:1 dilution series) or 10 μM-13.7 nM (2:1 dilution series), using 120 s association and dissociation times at a flow rate of 30 μ/min. All steps are performed in a running buffer consisting of 10 mM NaPO₄, 130 mM NaCl, 0.05% p20 (PBS-T) pH 7.1. FcγR proteins tested in these studies include the “high affinity” FcγR CD64 (hFcγRI), as well as the “low affinity” FcγRs CD32a-H131 (FcγRIIa-H131), CD32a-R131 (FcγRIIa-R131), CD32b (FcγRIIb), CD16a-V158 (FcγRIIIa-V158), and CD16a-F158 (FcγRIIIa-F158), which were expressed and purified in house. […]

[7] = target: T4, hCD32b (human, UniProt P31994 43-217, limits assumed); experiment: SPR, antibody captured on protein A, His-tagged FcγR as analyte; 1:1 steady state fit
T4 construct: His-tagged; also called FcγRIIb
T4 sequence (looked up): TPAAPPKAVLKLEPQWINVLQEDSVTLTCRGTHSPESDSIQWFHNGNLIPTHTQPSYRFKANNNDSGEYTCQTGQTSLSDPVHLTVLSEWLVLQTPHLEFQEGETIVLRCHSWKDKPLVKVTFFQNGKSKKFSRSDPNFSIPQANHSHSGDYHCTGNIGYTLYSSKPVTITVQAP
Protocol: (§5) FcγR binding SPR: FcγR binding can be measured in vitro using purified FcγRs using methods, such as BIAcore™ surface plasmon resonance (SPR). One method tests the binding of purified His-tagged FcγR proteins (FcγR-his) to antibodies that are captured on a sensor surface containing protein A which has been immobilized using standard ethyl(dimethylaminopropyl) carbodiimide (EDC)/N-hydroxysuccinimide (NHS) chemistry with ethanolamine blocking. These experiments are performed on a BIAcore™ T200 instrument (GE Healthcare, Marlborough, MA) at 25° C. For example, samples of purified antibody at 3 μg/ml concentration are first captured on the immobilized protein A surface using a 15 second (s) contact time at 10 μl/min flow rate. This is followed by the binding of purified FcγR-His proteins at various concentrations, such as 10 μM-1.5 nM (2:1 dilution series) or 10 μM-13.7 nM (2:1 dilution series), using 120 s association and dissociation times at a flow rate of 30 μ/min. All steps are performed in a running buffer consisting of 10 mM NaPO₄, 130 mM NaCl, 0.05% p20 (PBS-T) pH 7.1. FcγR proteins tested in these studies include the “high affinity” FcγR CD64 (hFcγRI), as well as the “low affinity” FcγRs CD32a-H131 (FcγRIIa-H131), CD32a-R131 (FcγRIIa-R131), CD32b (FcγRIIb), CD16a-V158 (FcγRIIIa-V158), and CD16a-F158 (FcγRIIIa-F158), which were expressed and purified in house. SPR data are fit to either a 1:1 Langmuir model, or a 1:1 steady state model using BIAcore™ T200 evaluation software to obtain values for the association rate constant (ka), dissociation rate constant (kd) and dissociation constant (KD).

[8] = target: T5, hCD32a-R131 (human, UniProt P12318 34-217, limits assumed); experiment: as above
T5 construct: His-tagged; R131 allotype; also called FcγRIIa-R131
T5 sequence (looked up): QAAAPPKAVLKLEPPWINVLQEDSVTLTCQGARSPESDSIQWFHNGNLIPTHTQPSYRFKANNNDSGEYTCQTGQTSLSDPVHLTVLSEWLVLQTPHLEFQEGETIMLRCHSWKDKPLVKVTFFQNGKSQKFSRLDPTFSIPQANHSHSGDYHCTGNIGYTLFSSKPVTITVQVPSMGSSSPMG
Protocol: as §5

[9] = target: T6, hCD32a-H131 (human, UniProt P12318 34-217, limits assumed); experiment: as above
T6 construct: His-tagged; H131 allotype; also called FcγRIIa-H131
T6 sequence (looked up): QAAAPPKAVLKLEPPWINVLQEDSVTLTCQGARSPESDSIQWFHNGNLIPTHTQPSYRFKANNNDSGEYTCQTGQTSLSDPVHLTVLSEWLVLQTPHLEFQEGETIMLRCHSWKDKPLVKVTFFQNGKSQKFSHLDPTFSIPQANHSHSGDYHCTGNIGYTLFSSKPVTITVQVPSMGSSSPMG
Protocol: as §5

[10] = target: T7, hCD16a-F158 (human, UniProt P08637 17-208); experiment: as above
T7 construct: His-tagged; F158 allotype; also called FcγRIIIa-F158
Protocol: as §5

[11] = target: T8, hCD16a-V158 (human, UniProt P08637 17-208); experiment: as above
T8 construct: His-tagged; V158 allotype; also called FcγRIIIa-V158
Protocol: as §5

[12] = target: T3, hCD64; experiment: SPR, antibody captured on protein A, His-tagged hCD64 as analyte; %Rmax against hCD64 concentration
Protocol: as §4

[13] = target: T3, hCD64; experiment: SPR, Ab captured on protein A, hCD64-His 10 µM-1.5 nM as analyte
Protocol: as §4

[14] = target: T2, human CD40 on cells (tonsillar B cells, …); experiment: cell-based or functional assay; remark: listed apart in the source
[15] = target: T1, human-CD40-monomer protein; experiment: SPR, Ab captured on protein A, hCD40 monomer 500 and 50 nM, 1:1 fit; purified
Protocol: as §1

T3 sequence (P12314 16-288 limits assumed): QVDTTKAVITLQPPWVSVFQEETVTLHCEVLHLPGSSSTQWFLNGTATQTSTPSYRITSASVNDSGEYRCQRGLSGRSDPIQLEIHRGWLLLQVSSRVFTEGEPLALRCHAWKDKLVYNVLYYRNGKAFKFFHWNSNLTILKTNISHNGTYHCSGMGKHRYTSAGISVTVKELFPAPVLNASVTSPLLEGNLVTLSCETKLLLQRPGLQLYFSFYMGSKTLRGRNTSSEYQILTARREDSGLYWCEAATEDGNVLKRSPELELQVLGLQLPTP
T2 sequence (P25942 21-277 limits assumed): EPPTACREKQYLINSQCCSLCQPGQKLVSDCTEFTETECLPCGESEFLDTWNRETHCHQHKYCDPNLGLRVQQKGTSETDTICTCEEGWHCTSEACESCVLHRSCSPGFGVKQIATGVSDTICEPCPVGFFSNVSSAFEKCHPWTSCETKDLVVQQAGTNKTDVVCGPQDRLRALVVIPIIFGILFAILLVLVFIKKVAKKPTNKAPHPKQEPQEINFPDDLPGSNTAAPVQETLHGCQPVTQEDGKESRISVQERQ
T1 sequence (P25942 21-193 limits assumed): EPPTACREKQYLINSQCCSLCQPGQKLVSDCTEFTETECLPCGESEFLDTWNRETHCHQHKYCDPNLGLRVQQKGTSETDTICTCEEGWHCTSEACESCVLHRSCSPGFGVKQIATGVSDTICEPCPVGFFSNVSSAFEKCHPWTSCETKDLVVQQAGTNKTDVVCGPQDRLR
T8 sequence (P08637 17-208 F176V limits assumed): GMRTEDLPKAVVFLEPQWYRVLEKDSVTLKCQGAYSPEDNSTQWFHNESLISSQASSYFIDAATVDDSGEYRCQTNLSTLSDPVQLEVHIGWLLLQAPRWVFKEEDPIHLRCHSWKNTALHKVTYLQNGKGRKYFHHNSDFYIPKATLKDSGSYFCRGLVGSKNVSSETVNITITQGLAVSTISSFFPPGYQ
T7 sequence (P08637 17-208 limits assumed): as the sequence (P08637 17-208 F176V limits assumed) above, with V160F counted along it

| Binder | Kd [1] [nM] | koff [1] [s⁻¹] | Kd [3] [nM] | koff [3] [s⁻¹] | kon [3] [M⁻¹ s⁻¹] | kon [1] [M⁻¹ s⁻¹] | Kd [4] [nM] | koff [4] [s⁻¹] | kon [4] [M⁻¹ s⁻¹] | Inhibition of B cell proliferation induced by soluble CD40L trimer, Average (IC50 ng/ml) [5] [ng/mL] | Kd [15] [nM] | koff [15] [s⁻¹] | kon [15] [M⁻¹ s⁻¹] | also measured |
| --- | --- | --- | --- | --- | --- | --- | --- | --- | --- | --- | --- | --- | --- | --- |
| Y12XX-hz16 (antibody, human IgG1, kappa, V domains shown, Humanized, IgG1-P238K; supernatant sample) VH: QVQLVQSGAEVKKPGSSVKVSCKASGYAFTSYWMHWVRQRPGQGLEWMGFINPTTGYSEYNQKFKDRVTITADKSTSTAYMELSSLRSEDTAVYYCARWGLPPFAYWGQGTLVTVSS VL: DIQMTQSPSFLSASVGDRVTITCKASQDVSTAVAWYQQKPGKAPKLLIYSASYRYTGVPSRFSGSGSGTDFTLTISSLQPEDFATYYCQQHYSTPWTFGGGTKVEIKR | 3.2 | 0.00064 |  |  |  |  |  |  |  |  |  |  |  | kon [2]: 200000 M⁻¹ s⁻¹ |
| Y12XX-hz42-P238K (antibody, human IgG1, kappa, V domains shown, also called Vh-hz14;Vk-hz3) VH: QVQLVQSGAEVKKPGSSVKVSCKASGYAFTSYWMHWVRQAPGQGLEWMGQINPTTGRSQYNEKFKTRVTITADKSTSTAYMELSSLRSEDTAVYYCARWGLQPFAYWGQGTLVTVSS VL: EIVMTQSPATLSVSPGERATLSCKASQDVSTAVAWYQQKPGQAPRLLIYSASYRYTGIPARFSGSGSGTEFTLTISSLQSEDFAVYYCQQHYSTPWTFGGGTKVEIKR | 3.5 | 0.00083 | 2.3 | 0.00073 | 310000 | 240000 | 5.5 | 0.0034 | 630000 | 12.1 |  |  |  |  |
| Y12XX-hz40-P238K (antibody, human IgG1, kappa, V domains shown, also called Vh-hz12;Vk-hz3) VH: QVQLVQSGAEVKKPGSSVKVSCKASGYAFTSYWMHWVRQAPGQGLEWMGQINPSQGRSQYNEKFKTRVTITADKSTSTAYMELSSLRSEDTAVYYCARWGLQPFAYWGQGTLVTVSS VL: EIVMTQSPATLSVSPGERATLSCKASQDVSTAVAWYQQKPGQAPRLLIYSASYRYTGIPARFSGSGSGTEFTLTISSLQSEDFAVYYCQQHYSTPWTFGGGTKVEIKR | 4.7 | 0.0011 | 4.4 | 0.0013 | 290000 | 240000 | 10.9 | 0.0057 | 520000 | 6 |  |  |  |  |
| Y12XX-hz28-P238K (antibody, human IgG1, kappa, also called Y12XX-hz28-IgG1-P238K; Y12XX-hx28-IgG1-P238K) heavy: not shown light: DIQMTQSPSFLSASVGDRVTITCKASQDVSTAVAWYQQKPGKAPKLLIYSASYRYTGVPSRFSGSGSGTDFTLTISSLQPEDFATYYCQQHYSTPWTFGGGTKVEIKRTVAAPSVFIFPPSDEQLKSGTASVVCLLNNFYPREAKVQWKVDNALQSGNSQESVTEQDSKDSTYSLSSTLTLSKADYEKHKVYACEVTHQGLSSPVTKSFNRGEC | 3.5 | 0.00062 | 3.1 | 0.00069 | 220000 | 180000 | 8.5 | 0.0037 | 440000 | 6.7 |  |  |  | Kd [6]: 25 nM; Kd [7]: > 50 µM; Kd [8]: > 50 µM; Kd [9]: > 50 µM; Kd [10]: > 50 µM; Kd [11]: > 50 µM; EC50 (read off the curve) [12]: ~30 nM; fold weaker binding compared to wild type (control-IgG1) [13]: 125 fold; Potency for inhibition of CD40L expressing CHO cells stimulation of B cell proliferation (IC50 ng/ml) [14]: 38.1 ng/mL |
| Y1268-hIgG1f (antibody, V domains shown, Purified chimeric antibody with human wild-type IgG1f; also called purified chimeric Y1268; Chim-P) VH: QVQLQQPGAELVKPGASVRLSCKASGYAFTSYWMHWVKQRPGQGLEWIGQINPSNGRSQYNEKFKTMATLTVDKSSSTAYIQLSSLTSEDSAVYYCARWGLQPFAYWGQGTLVTVSA VL: DIVMTQSHKFMSTSVGDRVSITCKASQDVSTAVAWYQQKPGQSPKLLIYSASYRYTGVPDRFTGSGSGTDFTFTISSVQAEDLAVYYCQQHYSTPWTFGGGTKLEIK |  |  |  |  |  |  |  |  |  |  | 3.2 | 0.0013 | 400000 |  |
| Y1258-hIgG1f (antibody, Purified chimeric antibody, mouse variable regions with human wild-type IgG1f; also called purified chimeric Y1258; Chim-P) heavy: not shown VL: DIVMTQSHKFMSTSVGDRVSITCKASQDVSTAVAWYQQKPGQSPKLLIYSASYRYTGVPDRFTGSGSGTDFTFTISSVQAEDLAVYYCQQHYSTPWTFGGGTKLEIK |  |  |  |  |  |  |  |  |  |  | 0.01 | 5.9e-07 | 58000 |  |
| Y1262-hIgG1f (antibody, Purified chimeric antibody with human wild-type IgG1f; also called purified chimeric Y1262; Y1632-hIgG1f) heavy: not shown VL: DIVMTQSHKFMSTSVGDRVSITCKASQDVSTAVAWYQQKPGQSPKLLIYSASYRYTGVPDRFTGSGYGTDFTFTISSVQAEDLAVYYCQQHYSTPWTFGGGTKLEIK |  |  |  |  |  |  |  |  |  |  | 12 | 0.0055 | 480000 |  |
